For assay [1], the target named is T1, Recombinant human CD137 Fc fusion protein (Sino Biological) (human, UniProt Q07011 24-186).
T1 construct: not shown: Fc part of a bought fusion protein
As to the kind of experiment: BLI (ForteBio Octet); antigen-Fc on Protein A sensors, construct in solution; NB: no binding detected. As for the experimental part:
(§1) Antigen binding of MIAC constructs were analyzed using ForteBio Octet. […] All antigens were reconstituted in PBS at the final concentration of 0.25 ug/ul. […] Association proceeded by dipping sensors in 100 nM MIAC constructs for 5 minutes and disassociation occurred in blank kinetics buffer for 5 minutes. For CD3 epsilon binding, antigen was immobilized on Ni-NTA sensors; association was performed in 50 nM MIAC constructs. Binding data were analyzed using ForteBio Data Analysis 9.0 software.
Background: BLI is a label-free optical method that tracks binding on a fibre tip over time.

Assay [2] deals with T2, Recombinant human Her2 Fc fusion protein (Sino Biological) (human, UniProt P04626 23-652).
T2 construct: not shown: Fc part of a bought fusion protein
Described as above. As for the experimental part: as §1

The target of assay [3] is T3, Recombinant human PD-1 Fc fusion protein (Sino Biological) (human, UniProt Q15116 25-167).
T3 construct: not shown: Fc part of a bought fusion protein
T3 sequence (Q15116 25-167 limits assumed): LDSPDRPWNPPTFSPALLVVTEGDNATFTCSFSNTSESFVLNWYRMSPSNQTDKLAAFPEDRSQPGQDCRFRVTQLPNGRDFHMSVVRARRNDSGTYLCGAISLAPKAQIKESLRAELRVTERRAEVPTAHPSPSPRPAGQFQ
Kind of assay: BLI (ForteBio Octet); PD-1 Fc on Protein A sensors, 100 nM construct; column 'Affinity (nM)'. As for the experimental part: as §1

Assay [4] deals with T1, Recombinant human CD137 Fc fusion …. Kind of assay: ForteBio Octet bio-layer interferometry, sequential steps on one sensor: Her2 loading, blocking antibody, PID7, PD-1 (printed 'PI-1'), CD137.
The target in assay [5] is T3, Recombinant human PD-1 Fc fusion …. Kind of assay: ForteBio Octet bio-layer interferometry, sequential steps on one sensor: Her2 loading, blocking antibody, PID92, PD-1 (printed 'PI-1'), CD137.
The target in assay [6] is T1, Recombinant human CD137 Fc fusion …. As to the kind of experiment: BLI (ForteBio Octet); CD137 Fc on Protein A sensors, 100 nM construct; column 'Affinity (nM)'. As for the experimental part: as §1
Assay [7] concerns the target T3, Recombinant human PD-1 Fc fusion …. As to the kind of experiment: BLI (ForteBio Octet); antigen-Fc on Protein A sensors, construct in solution; NB: no binding detected. As for the experimental part:
as §1

B1: PID-2 (monospecific anti-PD-1; pembrolizumab Fab domain, human IgG1) (antibody, V domains shown)
VH: QVQLVQSGVEVKKPGASVKVSCKASGYTFTNYYMYWVRQAPGQGLEWMGGINPSNGGTNFNEKFKNRVTLTTDSSTTTAYMELKSLQFDDTAVYYCARRDYRFDMGFDYWGQGTTVTVSS
VL: EIVLTQSPATLSLSPGERATLSCRASKGVSTSGYSYLHWYQQKPGQAPRLLIYLASYLESGVPARFSGSGSGTDFTLTISSLEPEDFAVYYCQHSRDLPLTFGGGTKVEIKR
notes: also called PID2 (PD-1)
In the case of B1, the binding result in assay [1] and in assay [2] was “no binding (tested: 100 nM)” throughout.

B2: PID-7 (bispecific Her2/PD-1 MIAC; pembrolizumab IgG1 with trastuzumab scFv at the heavy chain C-termini) (bispecific antibody)
heavy: not shown
light: EIVLTQSPATLSLSPGERATLSCRASKGVSTSGYSYLHWYQQKPGQAPRLLIYLASYLESGVPARFSGSGSGTDFTLTISSLEPEDFAVYYCQHSRDLPLTFGGGTKVEIKRTVAAPSVFIFPPSDEQLKSGTASVVCLLNNFYPREAKVQWKVDNALQSGNSQESVTEQDSKDSTYSLSSTLTLSKADYEKHKVYACEVTHQGLSSPVTKSFNRGEC
notes: also called α-Her2/α-PD-1
For B2, in assay [3], the Kd stood at 0.12 nM. For the same molecule, the binding result in assay [4] is “no binding”.

B3: PID-92 (bispecific Her2/CD137 MIAC; urelumab IgG1 with trastuzumab scFv at the heavy chain C-termini) (bispecific antibody)
heavy: not shown
light: not shown
notes: also called α-Her2/α-CD137 MIAC; PID92 [Her2/CD137]
For B3, the binding result in assay [5] was “no binding”. In addition, in assay [6], the Kd stood at 0.23 nM.

B4: PID-90 (monospecific anti-CD137; urelumab Fab domain, human IgG1) (antibody, V domains shown)
VH: QVQLQQWGAGLLKPSETLSLTCAVYGGSFSGYYWSWIRQSPEKGLEWIGEINHGGYVTYNPSLESRVTISVDTSKNQFSLKLSSVTAADTAVYYCARDYGPGNYDWYFDLWGRGTLVTVSS
VL: EIVLTQSPATLSLSPGERATLSCRASQSVSSYLAWYQQKPGQAPRLLIYDASNRATGIPARFSGSGSGTDFTLTISSLEPEDFAVYYCQQRSNWPPALTFGGGTKVEIKR
notes: also called PID90 (CD137)
Regarding B4, in assay [6], the Kd was 0.7 nM. The binding result in assay [2] and in assay [7] was “no binding (tested: 100 nM)” throughout.

Usually Kd stands for the free concentration of one partner at which half of the binding sites on the other are occupied at equilibrium, for simple one-to-one binding.

Source of the values: patent US20190031785A1 (COMPASS THERAPEUTICS, published 2019).
